Publication PMC8192010

Test system: CsrA-H6 (Escherichia coli (stated identical to S. Typhimurium CsrA))
Test: EMSA

hilE leader RNA (+153 to +280) showed a Kd of 37 nM.
